Experimental data taken from PMC5770610, “Structure and function of urea amidolyase” (Bioscience Reports, 2018).
Changes are numbered by the printed parent chain. Names may count otherwise.

What was measured:
[1] = substrate: NC(=O)NC(=O)O; assay: glutamate dehydrogenase-coupled NADH assay of ammonium; type: biochemical, Kluyveromyces lactis; conditions: AH activity, 6 mM MgCl2, 20 mM KCl, pH 8.0, substrate as potassium salt
Excerpt: (§1) glutamate dehydrogenase-coupled NADH assay of ammonium on KlUA

[2] = substrate: NC(N)=O; assay: as above; type: biochemical, Kluyveromyces lactis; conditions: overall UA activity, 5 mM ATP, 12.5 mM bicarbonate, 11 mM MgCl2, 20 mM KCl
Excerpt: as §1

[3] = target: the molecule itself; assay: SEC; analytical gel filtration, Superose 6 HR column; 0.25 mg protein injected; 20 mM Tris/HCl pH 8.0, 200 mM NaCl; calibrated with standards of 29-669 kDa
[4] = pH 8.0, mutation at AH dimer interface
[5] = pH 8.0, mutation in UC CT active site
[6] = pH 8.0, mutation in AH N domain active site

B1: Kluyveromyces lactis urea amidolyase, full length (enzyme, UniProt Q6CP22 1-1829, looked up)
chain: MESTLGWSVQDWLSFHSKSTPTKSLELLENLLKSQKPAPEDPAWISLIPVEDLHHQWNILQSKSNKEELPLYGVPIAVKDNIDYKGLPTTAACPSYLYQPTRDSYVVELLRDAGAVVIGKTNLDQFATGLVGTRSPYGKTPCVFNDKYVSGGSSAGSASVVGRGIVPLSLGTDTAGSGRVPAALNNLIGLKPTKGAFSCRGVVPACKSLDCVSVFALNLSDAEIAFKVMNKPDLLEDEYSREFPKNPISQYPKDLTIAIPKEVPWFGETENPKLYTKAVASLKNTGAKIVVVDFEPLLELARCLYEGAWVAERYCATRDFLATNPPESSLDETVVNIIKGAVKFDAADAFKFEYKRQGILQKVNLLLKDIDVLCVPTCPLNPKLEEVAQEPVLVNSRQGTWTNFVNLADLAALAVPSGFRSDGLPNGITLIGKKFSDYALLDLAKRFFSVAFPNNSRTYGKFVDRRITVEDELDGPSKDTLNGVKLAVVGAHLKGLPLHWQLQKCNATYLSSPKTSNNYKLYALPKVGPVLKPGLRRVNDGTGSQIQLEVYSVPYDRFGDFIAMVPEPLGIGSVELESGEWVKSFICEEFGYTQQGTVDITKFGGFKPYIEHIQVTEAQKKKPFETVLIANRGEIAVRIMKTLKRMGIKSVAVYSDPDKYSQHVTDADFSVALHGRTAAETYLDIDKIINAAKKTGAQAIIPGYGFLSENADFSDRCSQENIVFVGPSGDAIRKLGLKHSAREIAERAKVPLVPGSGLIKDAKEAKEVAKKLEYPVMVKSTAGGGGIGLQKVDSEDDIERVFETVQHQGKSYFGDAGVFMERFVNNARHVEIQMMGDGFGKAIAIGERDCSLQRRNQKVIEETPAPNLPEATRAKMRAASERLGSLLKYKCAGTVEFIYDEQRDEFYFLEVNARLQVEHPITEMVTGLDLVEWMLRIAANDSPDFDNTKIEVSGASIEARLYAENPVKDFRPSPGQLTSVSFPSWARVDTWVKKGTNVSAEYDPTLAKIIVHGKDRNDAIMKLNQALNETAVYGCITNIDYLRSIASSKMFKEAKVATKVLDSFDYKPCAFEVLAPGANTSVQDYPGRTGYWRIGVPPSGPMDSYSFRLANRVVGNNSKSPALEITLNGPKLLFHTETVIAVSGGTVSCTLNDAQIAQNEPIEVKRGDILSVGKVTVGCRAYLSIRGGIDVPEYLGSRSTFAMGNMGGYNGRILKLGDVLFLNQPELSVSSLPAPDFEPQAAPKSLLPTLSTNKDWKIGVTCGPHGSIDLFKEEYIEQFFNDKWKVHYNSNRFGVRLIGPKPKWARSDGGEAGLHPSNAHDYVYSLGAINFTGDEPVIITCDGPSLGGFVCQAVVAEAELWKVGQLTPGDTIQFVPLSYGVARQLKESQDKSIDNFEEGSLLELSDDKILPKYENPILAVLPKKSDLSPKVTYRQAGDRYILVEYGELEFDLNICYRINRLIHQVERHQTVGIVEMSQGVRSVLIEFDGSKINQKALLKCLIAYESEIQFDKNWNVKSKIFKLPMAFEDSKTLDCVTRYRETIRSEAPWLPNNVDFIADVNDIDRNDVKNMLYSAKFMVLGLGDVFLGSPCAVPLDPRHRYLGTKYNPSRTYTARGVVGIGGMYMCIYNAEGSPGGYQLVGRTITAWDKLVIGDHPIDHPWLLTPFDQVEFYPVTEEELEVIIEDNDNGKFKIDVEESIFDHKEYLAWINENIDSIVAFQEAQGGEKADEFARLIQVANAELKKSGDDKPQDVEEYPDDAELLYSEYTGRFWKPVAAVGDHVEAGDGVIIIEAMKTEMVVGATKSGKVYKILHKNGDMVEAGDLVAVIV
notes: urea amidolyase (AH domain followed by UC domain: BC, CT, BCCP) of Kluyveromyces lactis, gene amplified from the K. lactis genome; monomer 202 kDa; also called KlUA; full-length KlUA; source: expression and purification followed protocols reported previously [14,17]; purified
Km [1]: 0.36 ± 0.037 mM
kcat [1]: 34.2 ± 0.683 s⁻¹
kcat/Km [1]: 94900 ± 11700 M⁻¹ s⁻¹
Km ([2]; pH 8.0): 0.255 ± 0.018 mM
kcat ([2]; pH 8.0): 13.9 ± 0.183 s⁻¹
kcat/Km ([2]; pH 8.0): 54600 ± 4600 M⁻¹ s⁻¹
stoichiometry N [3]: 2

B2: KlUA (Kluyveromyces lactis NRRL Y-1140; G559E/G572E) (protein)
chain: B1 chain with G559E, G572E
notes: full-length enzyme, AH + UC domains; recombinant in E. coli BL21(DE3) Star (pET28A, nickel column); homodimer, monomer 202 kDa
Km ([1]; mutation at AH dimer interface): 1.04 ± 0.183 mM
kcat ([1]; mutation at AH dimer interface): 7.85 ± 0.367 s⁻¹
kcat/Km ([1]; mutation at AH dimer interface): 7550 ± 1680 M⁻¹ s⁻¹
Km [2, 4]: 0.361 ± 0.032 mM
kcat [2, 4]: 3 ± 0.0533 s⁻¹
kcat/Km [2, 4]: 8320 ± 900 M⁻¹ s⁻¹

B3: KlUA (Kluyveromyces lactis NRRL Y-1140; K1605A) (protein)
chain: B1 chain with K1605A
notes: as for B2
Km [2, 5]: 0.299 ± 0.039 mM
kcat [2, 5]: 1.33 ± 0.0333 s⁻¹
kcat/Km [2, 5]: 4450 ± 683 M⁻¹ s⁻¹

B4: KlUA (Kluyveromyces lactis NRRL Y-1140; S177A) (protein)
chain: B1 chain with S177A
notes: as for B2
Km [2, 6]: 0.203 ± 0.020 mM
kcat [2, 6]: 0.785 ± 0.0133 s⁻¹
kcat/Km [2, 6]: 3870 ± 450 M⁻¹ s⁻¹

B5: KlUAΔBCCP (Kluyveromyces lactis urea amidolyase residues 1-1741, BCCP domain removed) (domain or fragment, UniProt Q6CP22 1-1741, looked up)
chain: MESTLGWSVQDWLSFHSKSTPTKSLELLENLLKSQKPAPEDPAWISLIPVEDLHHQWNILQSKSNKEELPLYGVPIAVKDNIDYKGLPTTAACPSYLYQPTRDSYVVELLRDAGAVVIGKTNLDQFATGLVGTRSPYGKTPCVFNDKYVSGGSSAGSASVVGRGIVPLSLGTDTAGSGRVPAALNNLIGLKPTKGAFSCRGVVPACKSLDCVSVFALNLSDAEIAFKVMNKPDLLEDEYSREFPKNPISQYPKDLTIAIPKEVPWFGETENPKLYTKAVASLKNTGAKIVVVDFEPLLELARCLYEGAWVAERYCATRDFLATNPPESSLDETVVNIIKGAVKFDAADAFKFEYKRQGILQKVNLLLKDIDVLCVPTCPLNPKLEEVAQEPVLVNSRQGTWTNFVNLADLAALAVPSGFRSDGLPNGITLIGKKFSDYALLDLAKRFFSVAFPNNSRTYGKFVDRRITVEDELDGPSKDTLNGVKLAVVGAHLKGLPLHWQLQKCNATYLSSPKTSNNYKLYALPKVGPVLKPGLRRVNDGTGSQIQLEVYSVPYDRFGDFIAMVPEPLGIGSVELESGEWVKSFICEEFGYTQQGTVDITKFGGFKPYIEHIQVTEAQKKKPFETVLIANRGEIAVRIMKTLKRMGIKSVAVYSDPDKYSQHVTDADFSVALHGRTAAETYLDIDKIINAAKKTGAQAIIPGYGFLSENADFSDRCSQENIVFVGPSGDAIRKLGLKHSAREIAERAKVPLVPGSGLIKDAKEAKEVAKKLEYPVMVKSTAGGGGIGLQKVDSEDDIERVFETVQHQGKSYFGDAGVFMERFVNNARHVEIQMMGDGFGKAIAIGERDCSLQRRNQKVIEETPAPNLPEATRAKMRAASERLGSLLKYKCAGTVEFIYDEQRDEFYFLEVNARLQVEHPITEMVTGLDLVEWMLRIAANDSPDFDNTKIEVSGASIEARLYAENPVKDFRPSPGQLTSVSFPSWARVDTWVKKGTNVSAEYDPTLAKIIVHGKDRNDAIMKLNQALNETAVYGCITNIDYLRSIASSKMFKEAKVATKVLDSFDYKPCAFEVLAPGANTSVQDYPGRTGYWRIGVPPSGPMDSYSFRLANRVVGNNSKSPALEITLNGPKLLFHTETVIAVSGGTVSCTLNDAQIAQNEPIEVKRGDILSVGKVTVGCRAYLSIRGGIDVPEYLGSRSTFAMGNMGGYNGRILKLGDVLFLNQPELSVSSLPAPDFEPQAAPKSLLPTLSTNKDWKIGVTCGPHGSIDLFKEEYIEQFFNDKWKVHYNSNRFGVRLIGPKPKWARSDGGEAGLHPSNAHDYVYSLGAINFTGDEPVIITCDGPSLGGFVCQAVVAEAELWKVGQLTPGDTIQFVPLSYGVARQLKESQDKSIDNFEEGSLLELSDDKILPKYENPILAVLPKKSDLSPKVTYRQAGDRYILVEYGELEFDLNICYRINRLIHQVERHQTVGIVEMSQGVRSVLIEFDGSKINQKALLKCLIAYESEIQFDKNWNVKSKIFKLPMAFEDSKTLDCVTRYRETIRSEAPWLPNNVDFIADVNDIDRNDVKNMLYSAKFMVLGLGDVFLGSPCAVPLDPRHRYLGTKYNPSRTYTARGVVGIGGMYMCIYNAEGSPGGYQLVGRTITAWDKLVIGDHPIDHPWLLTPFDQVEFYPVTEEELEVIIEDNDNGKFKIDVEESIFDHKEYLAWINENIDSIVAFQEAQGGEKADEFARLIQVANAE
notes: urea amidolyase of Kluyveromyces lactis, residues 1-1741 (stop codon inserted after base pair 5223); lacks the C-terminal BCCP domain; monomer 190 kDa; also called KIUAΔBCCP; source: E. coli BL21 (DE3) Star, purified (Ni-NTA, anion exchange, size exclusion)
stoichiometry N [3]: 2
